Experimental data as given in patent US20250136677A1 (ZOETIS SERVICES, published 2025).
Positions count from the first letter of the chain named.

T1: wildtype feline IL-31 protein (Feline_IL31_wildtype) (feline)
T1 chain: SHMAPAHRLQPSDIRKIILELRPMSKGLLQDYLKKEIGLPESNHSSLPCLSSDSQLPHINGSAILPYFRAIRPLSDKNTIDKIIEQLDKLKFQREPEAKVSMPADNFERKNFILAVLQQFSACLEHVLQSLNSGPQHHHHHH

T2: canine IL-31 protein (Canine_IL31) (canine)
T2 chain: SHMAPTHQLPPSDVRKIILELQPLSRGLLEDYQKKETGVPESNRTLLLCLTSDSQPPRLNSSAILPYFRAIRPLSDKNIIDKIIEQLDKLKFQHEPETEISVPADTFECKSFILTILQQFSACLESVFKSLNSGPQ

B1: Feline 11E12 1.1 FW2 (antibody, V domains shown)
VH: QVLLVQSGAEVKKPGASVKIFCKASGYSFTYYDINWLRQAPEQGLEWMGWIFPGDGGTKYNETFKGRLTLTADTSTNTVYMELSSLRSADTAMYYCARGGTSVIRDAMDYWGQGALVTVSS
VL: EIQMTQSPSSLSASPGDRVTITCRASESVDNYGISFMHWYQQKPGQPPKLLIYRASNLESGVPSRFSGSGSGTDFTLTISSLEPEDAATYYCQQSNKDPLTFGQGT
notes: Feline 11E12 VL1 with the mouse FW2; Feline heavy and kappa constant regions
B2: mouse:canine 11E12 chimera (antibody)
heavy: QVQLQQSGAELVKPGASVKLSCKASGYTFKYYDINWVRQRPEQGLEWIGWIFPGDGGTKYNETFKGKATLTTDKSSSTAYMQLSRLTSEDSAVYFCARGGTSVIRDAMDYWGQGTSVTVSSASTTAPSVFPLAPSCGSTSGSTVALACLVSGYFPEPVTVSWNSGSLTSGVHTFPSVLQSSGLYSLSSMVTVPSSRWPSETFTCNVAHPASKTKVDKPVPKRENGRVPRPPDCPKCPAPEMLGGPSVFIFPPKPKDTLLIARTPEVTCVVVDLDPEDPEVQISWFVDGKQMQTAKTQPREEQFNGTYRVVSVLPIGHQDWLKGKQFTCKVNNKALPSPIERTISKARGQAHQPSVYVLPPSREELSKNTVSLTCLIKDFFPPDIDVEWQSNGQQEPESKYRTTPPQLDEDGSYFLYSKLSVDKSRWQRGDTFICAVMHEALHNHYTQESLSHSPGK
light: DIVLTQSPASLAVSLGQRATISCRASESVDNYGISFMHWYQQKPGQPPKLLIYRASNLESGIPARFSGSGSRTDFTLTINPVETDDVATYYCQQSNKDPLTFGAGTKLELKRNDAQPAVYLFQPSPDQLHTGSASVVCLLNSFYPKDINVKWKVDGVIQDTGIQESVTEQDKDSTYSLSSTLTMSSTEYLSHELYSCEITHKSLPSTLIKSFQRSEC
notes: Mouse variable regions on canine IgG constant regions; made in HEK 293 cells; also called canine chimeric form of 11E12
B3: A62 (antibody, V domains shown)
VH: QVLLVQSGAEVRTPGASVKIFCKASGYSFTSYTIHWLRQAPAQGLEWMGNINPTSGYTENNQRFKDRLTLTADTSTNTAYMELSSLRSADTAMYYCARWGFKYDGEWAFDVWGAGTTVTVSS
VL: EIQMTQSPSSLSASPGDRVTITCRASQGISIWLSWYQQKPGNIPKVLINKASNLHIGVPSRFSGSGSGTDFTLTISSLEPEDAATYYCLQSQTYPLTFGGGTKLEIK
B4: A63 (antibody, V domains shown)
VH: B3 VH with A108S, F109A
VL: B3 VL
B5: A65 (antibody, V domains shown)
VH: B3 VH with A108S, V111A
VL: B3 VL
B6: A64 (antibody, V domains shown)
VH: B3 VH with A108S, D110A
VL: B3 VL
B7: A03 (antibody, V domains shown)
VH: B3 VH with A108S
VL: B3 VL with G28A
notes: sample ID reads A03 although it stands between A07 and A09
B8: A12 (antibody, V domains shown)
VH: B3 VH with A108S
VL: B3 VL with I31A
B9: A06 (antibody, V domains shown)
VH: B3 VH with A108S
VL: B3 VL with S26A
B10: A16 (antibody, V domains shown)
VH: B3 VH with A108S
VL: B3 VL with S52A
B11: A05 (antibody, V domains shown)
VH: B3 VH with A108S
VL: B3 VL with R24A
B12: A13 (antibody, V domains shown)
VH: B3 VH with A108S
VL: B3 VL with W32A
B13: A28 (antibody, V domains shown)
VH: B3 VH with A108S
VL: B3 VL with T97A
B14: A18 (antibody, V domains shown)
VH: B3 VH with A108S
VL: B3 VL with L54A
B15: A20 (antibody, V domains shown)
VH: B3 VH with A108S
VL: B3 VL with I56A
B16: A10 (antibody, V domains shown)
VH: B3 VH with A108S
VL: B3 VL with S30A
B17: A15 (antibody, V domains shown)
VH: B3 VH with A108S
VL: B3 VL with K50A
B18: A25 (antibody, V domains shown)
VH: B3 VH with A108S
VL: B3 VL with Y94A
B19: A09 (antibody, V domains shown)
VH: B3 VH with A108S
VL: B3 VL with I29A
B20: A23 (antibody, V domains shown)
VH: B3 VH with A108S
VL: B3 VL with Q92A
B21: A07 (antibody, V domains shown)
VH: B3 VH with A108S
VL: B3 VL with Q27A
B22: A27 (antibody, V domains shown)
VH: B3 VH with A108S
VL: B3 VL with L96A
B23: A26 (antibody, V domains shown)
VH: B3 VH with A108S
VL: B3 VL with P95A
B24: A24 (antibody, V domains shown)
VH: B3 VH with A108S
VL: B3 VL with T93A

Target: T1, wildtype feline IL-31 protein …
Assay: cell-based or functional assay

For B1, the “IC50, inhibition of feline IL-31-induced STAT3 phosphorylation, canine DH82 cells” value was 5.66 µg/mL.

Point of comparison: B2, “IC50, inhibition of feline IL-31-induced STAT3 phosphorylation, feline FCWF4 cells” value 1.15 µg/mL. Against it:
- B1 — 3.8-fold higher, 4.38 µg/mL

Target: T1, wildtype feline IL-31 protein …
Assay: cell-based or functional assay
Remark: another data set of the same source

Point of comparison: B5, “% Inhibition Relative to Parent (pSTAT, FCWF-4 cells)” value 26.8%. Against it:
- B3 — lower, 22.6%
- B4 — lower, -6%
- B6 — lower, 6.9%

Target: T1, wildtype feline IL-31 protein …
Assay: cell-based or functional assay
Remark: another data set of the same source

Point of comparison: B7, “% Inhibition Relative to Parent (pSTAT, FCWF-4 cells)” value 52.9%. Against it:
- B8 — lower, 19.3%
- B9 — lower, 40%
- B10 — higher, 69.3%
- B11 — lower, 0%
- B12 — lower, 4.4%
- B13 — higher, 59.7%
- B14 — lower, 49.4%
- B15 — lower, 29%
- B16 — lower, 26%
- B17 — lower, 34.1%
- B18 — lower, 1.3%
- B19 — lower, 28%
- B20 — lower, 29.2%
- B21 — higher, 93.6%
- B22 — lower, 7.2%
- B23 — lower, 43.7%
- B24 — higher, 56.7%

Target: T2, canine IL-31 protein (Canine_IL31)
Assay: SPR (Biacore), IL-31 on chip, 1:1 fit

Point of comparison: B1, koff 0.000318 s⁻¹. Against it:
- B2 — 490-fold lower, 6.55e-07 s⁻¹

Point of comparison: B1, kon 45200 M⁻¹ s⁻¹. Against it:
- B2 — 18-fold higher, 793000 M⁻¹ s⁻¹

B2 showed a Kd of 0.000826 nM.

Target: T1, wildtype feline IL-31 protein …
Assay: SPR (Biacore), IL-31 on chip, 1:1 fit
Method: The affinity with which candidate mAbs bind canine and feline IL-31 was determined using surface plasmon resonance (SPR) on a Biacore system (Biocore Life Sciences (GE Healthcare), Uppsala, Sweden). To avoid affinity differences associated with differential surface preparation that can occur when immobilizing antibodies to surfaces; a strategy was employed where IL-31 was directly conjugated to the surface. Immobilization was obtained by amine coupling 5 μg/mL IL-31 using N-hydroxysuccinimide (NHS)/1-Ethyl-3-(3-dimethylaminopropyl) carbodiimide (EDC) chemistry. Chips were quenched with ethanolamine and the affinity with which all candidate mAbs bound to the immobilized IL-31 was evaluated. All curves were fit to a 1:1 model. […] Results for affinity measurements are described herein.

Point of comparison: B1, Kd 0.75 nM. Against it:
- B2 — 3-fold lower, 0.248 nM

Point of comparison: B2, koff 0.000108 s⁻¹. Against it:
- B1 — 5.9-fold higher, 0.000639 s⁻¹

Point of comparison: B1, kon 852000 M⁻¹ s⁻¹. Against it:
- B2 — 1.9-fold lower, 437000 M⁻¹ s⁻¹

Target: T1, wildtype feline IL-31 protein …
Assay: Biacore, feline IL-31 chip, mAb 100 nM, share of points within parent mean +/-3 SD
Parameters: key: % of mutant data points within parent mAb mean ±3 SD
Source text: (§1) The mean response unit of four replicates of the parent mAb+/−3 standard deviations was used to generate parameters to define a threshold of response units comprising both the on- and off-rates antibody binding (FIG. 22). The percentage of data points for each mutant fell within this threshold was then used to define a “% similarity score” (FIG. 23).

Point of comparison: B5, “Binding Similarity score” value 50.5. Against it:
- B3 — lower, 46.1
- B4 — lower, 2.9
- B6 — lower, 2.7

Target: T1, wildtype feline IL-31 protein …
Assay: as above
Parameters: key: % of mutant data points within parent mAb mean ±3 SD
Remark: another data set of the same source
Source text: The region of an antibody responsible for antigen recognition represents the paratope. A paratope is created by a combination of amino acids in the complementarity determining regions (CDRs) of both the heavy and light chain variable regions. The binding between antibody and antigen is often mediated by side chains of CDR residues with side chains or carbohydrate moieties of the antigen. To help define critical side chains involved in antibody recognition alanine scanning mutagenesis was performed on each CDR residue in both the heavy and light chain. These mutants were then individually tested for the ability to bind feline IL-31 using the biacore and evaluated for inhibition of IL-31-mediated signaling in the FCWF-4 cell based assay.
as §1

Point of comparison: B22, “Binding Similarity score” value 11.7. Against it:
- B7 — higher, 58
- B8 — higher, 25.7
- B9 — higher, 89.7
- B10 — higher, 58
- B11 — higher, 25.6
- B12 — lower, 2.4
- B13 — higher, 42.2
- B14 — higher, 100
- B15 — higher, 31.3
- B16 — higher, 63.4
- B17 — lower, 11.6
- B18 — lower, 4.4
- B19 — higher, 100
- B20 — higher, 64.8
- B21 — higher, 74.4
- B23 — higher, 20.9
- B24 — higher, 100
